The values below come from publication PMC4251045.

For assay [1], the target named is Rim1-C-terminal 6xHis (yeast). Description: cross-linking; SDA (NHS-diazirine) 50 uM, 3 uM Rim1 tetramer, 25 mM HEPES, 100 mM NaCl, 10% glycerol, pH 7.5, NHS step 25 °C 30 min, then UV 365 nm; SDS-PAGE; bands analysed by nanoLC-LTQ-Orbitrap MS (XLPM).
The target in assay [2] is Rim1-C-terminal 6xHis (yeast). Nature of the assay: cross-linking; DSS 2.5 mM, 3 uM Rim1 tetramer, 25 mM HEPES, 100 mM NaCl, 10% glycerol, pH 7.5, room temperature 40 min; products resolved on 5-15% SDS-PAGE; bands digested and analysed by nanoLC-LTQ-Orbitrap MS (XLPM, StavroX).

In general, stoichiometry N refers to a count of units in the complex or per binding partner.

Regarding Rim1-C-terminal 6xHis (natural protein), the stoichiometry N in assay [1] and in assay [2] was 4 throughout.
